Reference: US20220204643A1 (published 2022)
Each block holds one binder with its values, some of them ahead of it.

What was measured:
[1] = molecular target: T1, BCL2 apoptosis regulator, transcript variant alpha (human, UniProt P10415 1-239); assay: protein array
T1 construct: on protein array

chymotrypsinogen B2 = molecular target: T2, chymotrypsinogen B2 (human, UniProt Q6GPI1 19-263); assay: protein array
T2 construct: on protein array; also called CTRB2

[2] = molecular target: T3, phosphoglucomutase 2 like 1 (human, UniProt Q6PCE3 1-622 at identity 1.00)); assay: protein array
T3 construct: on protein array; also called PGM2L1
T3 sequence: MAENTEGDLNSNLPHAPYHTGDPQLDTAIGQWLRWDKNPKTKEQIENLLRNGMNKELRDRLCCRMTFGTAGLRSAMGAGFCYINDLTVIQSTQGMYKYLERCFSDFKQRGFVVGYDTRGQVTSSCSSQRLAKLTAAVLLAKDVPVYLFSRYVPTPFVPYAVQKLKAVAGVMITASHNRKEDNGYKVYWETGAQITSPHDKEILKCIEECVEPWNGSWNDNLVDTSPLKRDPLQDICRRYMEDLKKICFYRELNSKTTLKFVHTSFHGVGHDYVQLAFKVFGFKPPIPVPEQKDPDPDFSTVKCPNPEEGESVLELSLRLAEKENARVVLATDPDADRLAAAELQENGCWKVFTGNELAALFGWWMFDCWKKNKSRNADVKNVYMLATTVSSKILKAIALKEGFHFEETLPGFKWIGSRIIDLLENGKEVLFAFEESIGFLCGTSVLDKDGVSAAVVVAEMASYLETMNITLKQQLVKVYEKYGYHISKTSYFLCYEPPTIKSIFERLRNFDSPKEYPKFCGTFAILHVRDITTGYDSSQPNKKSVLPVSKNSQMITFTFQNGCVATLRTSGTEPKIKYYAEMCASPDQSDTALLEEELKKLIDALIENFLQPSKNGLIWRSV

[3] = molecular target: T4, transforming growth factor beta induced (human, UniProt Q15582 24-683); assay: protein array
T4 construct: on protein array; also called TGFBI
T4 sequence: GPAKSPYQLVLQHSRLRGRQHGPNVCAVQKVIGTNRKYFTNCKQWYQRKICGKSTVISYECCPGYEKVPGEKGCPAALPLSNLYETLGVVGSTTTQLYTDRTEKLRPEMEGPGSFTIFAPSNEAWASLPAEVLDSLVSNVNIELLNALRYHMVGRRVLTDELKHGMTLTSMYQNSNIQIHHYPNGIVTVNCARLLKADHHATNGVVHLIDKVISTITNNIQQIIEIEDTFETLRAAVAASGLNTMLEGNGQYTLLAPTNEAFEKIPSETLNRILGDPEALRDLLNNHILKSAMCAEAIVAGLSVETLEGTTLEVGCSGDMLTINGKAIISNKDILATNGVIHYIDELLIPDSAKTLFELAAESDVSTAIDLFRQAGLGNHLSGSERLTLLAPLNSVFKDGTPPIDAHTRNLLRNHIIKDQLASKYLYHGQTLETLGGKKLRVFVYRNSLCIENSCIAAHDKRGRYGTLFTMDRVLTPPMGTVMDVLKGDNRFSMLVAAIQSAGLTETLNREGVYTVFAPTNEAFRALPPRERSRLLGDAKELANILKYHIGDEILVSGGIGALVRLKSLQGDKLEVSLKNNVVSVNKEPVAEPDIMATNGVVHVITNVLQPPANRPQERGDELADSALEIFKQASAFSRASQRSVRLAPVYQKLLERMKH

[4] = molecular target: T5, zinc finger with KRAB and SCAN domains 4, transcript variant X1 (human, UniProt Q969J2 1-545); assay: protein array
T5 construct: on protein array; also called ZKSCAN4
T5 sequence: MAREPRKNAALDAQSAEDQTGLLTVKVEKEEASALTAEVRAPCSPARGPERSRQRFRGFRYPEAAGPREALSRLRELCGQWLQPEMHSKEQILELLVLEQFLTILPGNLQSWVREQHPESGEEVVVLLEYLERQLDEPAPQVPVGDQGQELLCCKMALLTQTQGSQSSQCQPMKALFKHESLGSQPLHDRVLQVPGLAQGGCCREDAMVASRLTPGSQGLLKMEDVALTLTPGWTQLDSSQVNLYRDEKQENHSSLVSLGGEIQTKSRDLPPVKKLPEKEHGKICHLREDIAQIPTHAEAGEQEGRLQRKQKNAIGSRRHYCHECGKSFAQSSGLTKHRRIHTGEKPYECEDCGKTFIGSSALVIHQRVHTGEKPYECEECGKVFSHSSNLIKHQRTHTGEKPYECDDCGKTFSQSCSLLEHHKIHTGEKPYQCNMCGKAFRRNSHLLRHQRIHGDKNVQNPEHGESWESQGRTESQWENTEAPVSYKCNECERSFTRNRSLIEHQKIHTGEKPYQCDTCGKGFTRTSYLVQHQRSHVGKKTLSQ

[5] = molecular target: T6, cyclin dependent kinase 2 associated protein 2, transcript variant 1 (human, UniProt O75956 1-126); assay: protein array
T6 construct: on protein array; also called CDK2AP2
T6 sequence: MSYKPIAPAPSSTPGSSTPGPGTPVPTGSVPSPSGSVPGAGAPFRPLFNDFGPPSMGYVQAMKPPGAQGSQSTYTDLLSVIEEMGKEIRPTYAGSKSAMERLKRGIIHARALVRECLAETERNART

[6] = molecular target: T7, NFKB inhibitor beta, transcript variant 1 (human, UniProt Q15653 1-356); assay: protein array
T7 construct: on protein array; also called NFKBIB
T7 sequence: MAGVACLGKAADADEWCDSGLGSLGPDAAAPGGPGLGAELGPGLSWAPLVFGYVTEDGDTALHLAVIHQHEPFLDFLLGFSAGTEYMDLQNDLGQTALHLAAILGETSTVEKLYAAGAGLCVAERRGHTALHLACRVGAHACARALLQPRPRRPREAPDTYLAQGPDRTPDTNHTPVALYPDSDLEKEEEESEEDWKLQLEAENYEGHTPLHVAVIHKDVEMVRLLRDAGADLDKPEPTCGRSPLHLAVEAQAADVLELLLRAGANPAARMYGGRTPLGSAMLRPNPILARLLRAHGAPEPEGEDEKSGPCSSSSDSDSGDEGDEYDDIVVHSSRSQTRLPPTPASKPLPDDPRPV

[7] = molecular target: T8, zinc finger DHHC-type containing 1, transcript variant 1 (human, UniProt Q8WTX9 1-485); assay: protein array
T8 construct: on protein array; also called ZDHHC1
T8 sequence: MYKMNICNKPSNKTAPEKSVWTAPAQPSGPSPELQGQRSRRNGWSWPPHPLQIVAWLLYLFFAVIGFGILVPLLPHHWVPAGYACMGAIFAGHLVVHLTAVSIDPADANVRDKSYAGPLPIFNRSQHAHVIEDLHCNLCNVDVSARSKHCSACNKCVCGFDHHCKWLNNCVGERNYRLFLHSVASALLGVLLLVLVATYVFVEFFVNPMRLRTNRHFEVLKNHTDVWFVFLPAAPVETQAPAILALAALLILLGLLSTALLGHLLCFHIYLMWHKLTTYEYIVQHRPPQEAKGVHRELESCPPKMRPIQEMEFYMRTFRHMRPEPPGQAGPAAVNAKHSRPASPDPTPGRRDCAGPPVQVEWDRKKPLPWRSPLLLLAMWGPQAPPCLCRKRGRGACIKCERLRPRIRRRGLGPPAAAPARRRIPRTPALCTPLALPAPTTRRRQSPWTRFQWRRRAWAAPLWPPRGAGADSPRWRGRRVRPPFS

programmed cell death 1 = molecular target: T9, programmed cell death 1 (human, UniProt Q15116 25-288); assay: protein array, with experimental replicate
T9 construct: on protein array; also called PDCD1

[8] = molecular target: T10, Transforming growth factor beta 3 (human, UniProt P10600 24-412); assay: protein array
T10 construct: on protein array; also called TGFB3
T10 sequence: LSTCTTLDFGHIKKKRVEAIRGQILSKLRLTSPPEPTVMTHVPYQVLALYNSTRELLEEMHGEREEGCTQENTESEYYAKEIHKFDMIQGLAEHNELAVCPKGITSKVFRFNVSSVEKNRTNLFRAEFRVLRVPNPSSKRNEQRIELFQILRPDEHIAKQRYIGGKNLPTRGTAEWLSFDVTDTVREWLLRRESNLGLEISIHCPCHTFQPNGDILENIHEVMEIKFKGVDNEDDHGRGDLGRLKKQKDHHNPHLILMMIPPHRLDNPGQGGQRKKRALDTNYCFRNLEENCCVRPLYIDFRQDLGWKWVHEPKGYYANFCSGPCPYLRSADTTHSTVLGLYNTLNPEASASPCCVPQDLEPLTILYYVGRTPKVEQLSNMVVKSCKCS

T2 sequence (Q6GPI1 19-263 limits assumed): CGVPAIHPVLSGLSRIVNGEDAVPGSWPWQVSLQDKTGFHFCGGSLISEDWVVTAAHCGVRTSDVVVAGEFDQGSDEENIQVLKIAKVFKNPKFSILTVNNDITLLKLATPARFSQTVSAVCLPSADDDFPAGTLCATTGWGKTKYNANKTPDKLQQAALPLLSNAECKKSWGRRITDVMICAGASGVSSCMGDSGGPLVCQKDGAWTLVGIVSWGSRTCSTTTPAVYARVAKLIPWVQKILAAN
T9 sequence (Q15116 25-288 limits assumed): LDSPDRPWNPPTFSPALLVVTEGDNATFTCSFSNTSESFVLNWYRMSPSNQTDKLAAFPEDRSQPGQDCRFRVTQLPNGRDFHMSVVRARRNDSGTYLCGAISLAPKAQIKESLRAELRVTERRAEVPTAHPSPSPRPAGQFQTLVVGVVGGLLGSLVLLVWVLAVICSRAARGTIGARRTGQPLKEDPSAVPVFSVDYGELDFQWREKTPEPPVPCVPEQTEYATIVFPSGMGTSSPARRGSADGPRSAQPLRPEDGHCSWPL
T1 sequence (P10415 whole entry, change not shown): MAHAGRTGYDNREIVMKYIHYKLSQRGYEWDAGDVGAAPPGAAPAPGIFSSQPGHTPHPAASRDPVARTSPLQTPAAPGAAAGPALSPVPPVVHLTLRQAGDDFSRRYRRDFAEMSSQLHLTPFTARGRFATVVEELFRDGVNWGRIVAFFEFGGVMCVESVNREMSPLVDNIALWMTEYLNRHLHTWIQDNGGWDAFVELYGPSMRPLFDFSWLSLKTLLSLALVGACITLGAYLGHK

binding result [3]: binds
B4: TSTO1008 (antibody, V domains shown)
VH: AVQLVQSGAEVKKPGESLRISCKGSGYSFSTYWIIWVRQMPGKGLEWIGRFDPSDSYNVNSPSFQGHVTISADTSINTAYLQWSSLKASDSAMYYCARRSDKAVPGTFDQWGQGTLVTVSS
VL: RSVLTQPPSVSAAPGQKVIISCSGSSSNIGNNYVSWYQQFLGTAPKLLIYDTDKRPSGIPDRFSGSKSGTSATLGITGLQTGDEAHYYCATWDSSLRAGPVVFGGGTKLTVLG
notes: VH/VL tied via antigen in summary, not by name in this stretch

binding result [4]: binds
B5: TBRE1009 (antibody, V domains shown)
VH: EVQLVESGGGLVKPGGSLRLSCVGSGFTFSNYSMNWVRQAPGRGLEWVSSISWGSSYINYADSVKGRFTISRDNAKNSLYLQMTSLTAEDTAVYYCACRRIYQGFDPWGQGTLVT
VL: DIQMTQSPSSLSASVGDRVTISCRASHNINTYLNWYQHKPGKAPKIVIYGASSLQSGVPSRFSGSGSGTDFSLTISSLQREDFATYFCQQSFNTVLTFGGGTRVDI
notes: VH/VL only

binding result [5]: binds
binding result [6]: binds
B6: TSTO1005 (antibody, V domains shown)
VH: EVQLVESGGGVVQPGGSLRLSCAASGFTFEDFGMHWVRQAPGKGLEWVAFTRFDGSEKYYVDSVKGRFTVSRDNSKNTLFLHMNSLRPEDTAVYYCAKTRSYSSADTTRPNAPGYWGQGTLVTVSS
VL: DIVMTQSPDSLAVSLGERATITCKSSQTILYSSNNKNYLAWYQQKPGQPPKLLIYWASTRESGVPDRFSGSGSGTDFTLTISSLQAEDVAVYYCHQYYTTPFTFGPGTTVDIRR
notes: as for B4

binding result [7]: binds
B7: TBLA1003 (antibody, V domains shown)
VH: EVQLVESGGGLIQPGRSLRLSCAASGFTFEDYAMHWVRQAPGKGLEWVSGISWNSGNIGYADSVKGRFTISRDNAKNSLYLQMHSLRPEDTALYYCAKDINFFGLGTGGGAMDVWGQGTTVTVSS
VL: DIQMTQSPSYVSASVGDRVTITCRASQGIDVWLAWYQQKPGKAPKLLIYTASSLQSGVPSRFSGSGGGTEFTLTISSLQPEDFATYYCQQSNSFPGTFGPGTKVDVKR
notes: VH/VL only

binding result [8]: binds
B9: TSTO1003 (antibody, V domains shown)
VH: QVQLKQSGGGVVQPGRSLTLSCVASGLTFSDYGMHWVRQAPGKGLEWVAVIWHDGSKTNYADSVKGRIIISRDNSKSTVYLQMNRLRGEDTAVYYCATSHGGLVPGGENYWGQGTLVTVSS
VL: SDELTQPPSVSVSPGQTARITCSGDALAKEYAYWYQQKSGQAPVLVISKDTERPSGIPARFSGSSSGTTVTLTISGVQSDDEADYYCQSADSSLTYWLFGGGTKLTVLR
notes: as for B4

Continued, binder first:

B1: TSTO1010 (antibody, V domains shown)
VH: EVQLVESGGGLVKPRGSLRLSCAASGFTFSAYGMNWVRQAPGKGLEWVSSISGDSRDIYYGASMKGRFTISRDNAKSSLYLQMNSLRAEDTAVYYCARGEGGELWAFDYWGLGVLVTVSS
VL: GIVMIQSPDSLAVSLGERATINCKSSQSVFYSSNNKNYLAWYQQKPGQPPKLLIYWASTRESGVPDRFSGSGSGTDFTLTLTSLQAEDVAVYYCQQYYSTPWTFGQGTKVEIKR
notes: as for B4
binding result [1]: binds

B2: TSTO1004 (antibody, V domains shown)
VH: QVQLVQSGSELKKPGASVKVSCTSSGYVFTSFGVSWVRQVPGQGPEWMGWISPYTRQTKYAQSLQGRITLTADTSTNTTYMELRSLRSDDTAMYYCVREEFGVVRGPNPFDVWGQGTMVTVSS
VL: DIQMTQAPSTLSASVGDRVSITCRASQNIRDFLAWYQQKPGRAPDLLIYRASTLEKGVSARFSGSGSGTEFTLTITGLQPDDFATYYCQQYSDYSTFGGGTRVEIK
notes: as for B4
binding result (chymotrypsinogen B2): binds

B3: TTES1002 (antibody, V domains shown)
VH: QVQLQESGPGLVKPSETLSLICTVSGASVNSGTHFWSWIRQPPGKGLEWIGYVYYSGNTNYNPSLKSRVAISVDTSKNQFSLKLTSVTSADTAVYYCARDFDDGYDIRYWGQGTRVSVSS
VL: QSALTQPASVSGSPGQSITISCTGSSNDIGRYKYVSWFQHHPGRAPKLIIYEVNNRPSGLSHRFSGSKSGNTASLTISGLQAEDEADYYCCSYTSSLTYVFGTGTAVTVL
notes: as for B4
binding result [2]: binds

B8: TTES1003 (antibody, V domains shown)
VH: VVQLVESGGGLVQPGGSLRLSCSASGFTFSSYAMHWVRQAPGKGLEYVSAISSNGGSTYYADSVKGRFTISRDNSKNTLYLQMSSLRAEDTAVYYCVKSPVAANDAFDIWGQGTMVTVSS
VL: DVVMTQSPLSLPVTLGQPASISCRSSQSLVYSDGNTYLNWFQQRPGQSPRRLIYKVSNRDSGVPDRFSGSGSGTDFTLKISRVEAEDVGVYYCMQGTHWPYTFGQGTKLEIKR
notes: as for B4
binding result (programmed cell death 1): binds
